Data reported in the supplement of paper PMC7125110.
± gives the standard error. For some assays here: This sample holds only a part of the variants without activity.

B1: glmS ribozyme (parent)
chain: AUAAAAGCGCCAGAACUACAGAAAUGUAGUUGACGAGGAGGAGGUUUAUCGAAUUUUCGGCGGAUGCCUCCAAA

Tests used:
Conditions in all cases: with glucosamine-6-phosphate
[1] = variants of: B1; assay: kcat; higher = faster cleavage; RNA array
In short: (§1)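 Glucosamine-6-phosphate, from 40 μM to 10 mM in HEPES/KCl/Mg(OAc)2 buffer, was flowed over sequenced MiSeq chips carrying barcoded ribozyme variants transcribed in situ by E. coli RNA polymerase. A hybridised Cy3 probe tracked the variants at 37 °C as tiles were imaged over ~14 h. kobs, kcat and KM were obtained by fitting normalised per-tile medians to exponential decays and then applying weighted Michaelis–Menten fits across concentrations.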

[2] = variants of: B1; assay: KM; higher = weaker cofactor use; RNA array
In short: as §1

[3] = variants of: B1; assay: self-cleavage kobs at 40 uM GlcN6P; higher = faster cleavage; RNA array
In short: as §1

[4] = variants of: B1; assay: self-cleavage kobs at 160 uM GlcN6P; higher = faster cleavage; RNA array
In short: as §1

[5] = variants of: B1; assay: self-cleavage kobs at 640 uM GlcN6P; higher = faster cleavage; RNA array
In short: as §1

[6] = variants of: B1; assay: self-cleavage kobs at 2500 uM GlcN6P; higher = faster cleavage; RNA array
In short: as §1

[7] = variants of: B1; assay: self-cleavage kobs at 10000 uM GlcN6P; higher = faster cleavage; RNA array
In short: as §1

| Variant | kcat [1] [s⁻¹] | KM [2] [µM] | self-cleavage kobs at 40 uM GlcN6P [3] [s⁻¹] | self-cleavage kobs at 160 uM GlcN6P [4] [s⁻¹] | self-cleavage kobs at 640 uM GlcN6P [5] [s⁻¹] | self-cleavage kobs at 2500 uM GlcN6P [6] [s⁻¹] | self-cleavage kobs at 10000 uM GlcN6P [7] [s⁻¹] |
| --- | --- | --- | --- | --- | --- | --- | --- |
| AUAAAAGCGCCAGAACUACAGAAAUGUAGUUGACGAGGAGGAGGAUUAUCGAAUUUUCGGCGGAUGCUUCCAAA [U45A C68U] | 0.0022 ± 0.00039 | 1080 ± 320 | 7.41e-05 ± 1.2e-05 | 0.000537 ± 0.00012 | 0.000729 ± 0.00013 | 0.00176 ± 0.00032 | 0.00194 ± 0.00027 |
| AUAAAAGCGCCAGAACUACAGAAAUGUAGUUGACGAGGAGGAGGAUUAUCGAAUUUUCGGCGGUUGCCUCCAAA [U45A A64U] | 0.000543 ± 3.2e-05 | 2140 ± 230 | – | – | 0.00013 ± 2.1e-05 | 0.00029 ± 4.4e-05 | 0.000447 ± 7.9e-05 |
| AUAAAAGCGCCAGAACUACAGAAAUGUAGUUGACGAGGAGGAGGAUCAUCGAAUUUUCGGCGGAUGCCUCCAAA [U45A U47C] | 0.00985 ± 0.0035 | 2660 ± 1300 | 0.00017 ± 4.6e-05 | – | 0.00165 ± 0.00043 | 0.0091 ± 0.0044 | 0.00776 ± 0.0024 |
| AUAAAAGCGCCAGAACUACAGAAAUGUAGUUGACGAGGAGGAGGAUUAUCGAAUUUUCGGCGGAUGUCUCCAAA [U45A C67U] | 0.0622 ± 0.028 | – | 0.00106 ± 0.00014 | 0.00246 ± 0.00047 | 0.0118 ± 0.0023 | 0.033 ± 0.01 | 0.0465 ± 0.014 |
| AUAAAAGCGCCAGAACUACAGAAAUGUAGUUGACGAGGAGGAGGCUUAUCGAAUUUUCGGCGGAUGGCUCCAAA [U45C C67G] | 0.0224 ± 0.0058 | 5680 ± 1800 | 0.000175 ± 3.4e-05 | 0.000503 ± 0.00012 | 0.00339 ± 0.0011 | 0.00755 ± 0.0031 | 0.0141 ± 0.0026 |
| AUAAAAGCGCCAGAACUACAGAAAUGUAGUUGACGAGGAGGAGGAUUAUCGAUUUUUCGGCGGAUGCCUCCAAA [U45A A53U] | 0.054 ± 0.013 | 1720 ± 500 | 0.00125 ± 0.00017 | 0.00351 ± 0.0016 | 0.0162 ± 0.0071 | 0.0671 ± 0.03 | 0.0432 ± 0.012 |
